Source: patent US20220002427A1 (ENGMAB SARL, published 2022)
Several values for one entry are separate records, joined by “and”; a condition that tells them apart may be missing. Equal entries are not always repeated.

What was measured:
[1] = biological target: T1, human BCMA on cells (human, UniProt Q02223 1-184); experiment: flow cytometry on L363 multiple myeloma cells, PE anti-human Fc F(ab')2 detection; estimated EC50
T1 construct: whole, on cells; also called huBCMA on HEK cells; HEK-huBCMA cells
T1 sequence (looked up): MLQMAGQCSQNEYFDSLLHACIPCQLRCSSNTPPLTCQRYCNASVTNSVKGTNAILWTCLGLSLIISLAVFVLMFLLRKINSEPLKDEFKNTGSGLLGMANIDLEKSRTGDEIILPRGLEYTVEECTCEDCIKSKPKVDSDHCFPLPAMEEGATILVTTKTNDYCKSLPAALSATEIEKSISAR
Experimental: (§1) Briefly, cultured cells are harvested, counted and cell viability was evaluated using ViCell. Viable cells are then adjusted to 2×10⁶ cells per ml in BSA-containing FACS Stain Buffer (BD Biosciences). 100 μl of this cell suspension were further aliquoted per well into a round-bottom 96-well plate and incubated with 30 μl of the anti-BCMA antibodies or corresponding IgG control for 30 min at 4° c. All Anti-BCMA/anti-CD3 TCB antibodies (and TCB controls) were titrated and analyzed in final concentration range between 1-300 nM. Cells were then centrifuged (5 min, 350×g), washed with 120 μl/well FACS Stain Buffer (BD Biosciences), resuspended and incubated for an additional 30 min at 4° C. with fluorochrome-conjugated PE-conjugated AffiniPure F(ab′)2 Fragment goat anti-human IgG Fc Fragment Specific (Jackson Immuno Research Lab; 109-116-170). Cells were then washed twice with Stain Buffer (BD Biosciences), fixed using 100 ul BD Fixation buffer per well (#BD Biosciences, 554655) at 4° C. for 20 min, resuspended in 120 μl FACS buffer and analyzed using BD FACS CantoII.

[2] = biological target: T1, human BCMA on cells; experiment: flow cytometry on RPMI-8226 multiple myeloma cells, PE anti-human Fc F(ab')2 detection; asterisk: extrapolated by Prism
Experimental: as §1

[3] = biological target: T1, human BCMA on cells; experiment: cell-based or functional assay
[4] = biological target: T1, human BCMA on cells; experiment: cell-based or functional assay; remark: listed apart in the source
[5] = biological target: T1, human BCMA on cells; experiment: cell-based or functional assay; remark: listed apart in the source
[6] = biological target: T1, human BCMA on cells; experiment: flow cytometry on H929 multiple myeloma cells, PE anti-human Fc F(ab')2 detection; estimated EC50
Experimental: as §1

[7] = biological target: T1, human BCMA on cells; experiment: cell-based or functional assay; remark: listed apart in the source
[8] = biological target: T1, human BCMA on cells; experiment: cell-based or functional assay; remark: listed apart in the source
[9] = biological target: T1, human BCMA on cells; experiment: cell-based or functional assay; remark: listed apart in the source
[10] = biological target: T1, human BCMA on cells; experiment: flow cytometry on RPMI-8226 multiple myeloma cells, PE anti-human Fc F(ab')2 detection; estimated EC50
Experimental: as §1

B1: 83A10-TCBcv (bispecific antibody, human IgG1, kappa, L234A L235A)
heavy 1: not shown
heavy 2: not shown
light 1: not shown
light 2: EVQLLESGGGLVQPGGSLRLSCAASGFTFSTYAMNWVRQAPGKGLEWVSRIRSKYNNYATYYADSVKGRFTISRDDSKNTLYLQMNSLRAEDTAVYYCVRHGNFGNSYVSWFAYWGQGTLVTVSSASVAAPSVFIFPPSDEQLKSGTASVVCLLNNFYPREAKVQWKVDNALQSGNSQESVTEQDSKDSTYSLSSTLTLSKADYEKHKVYACEVTHQGLSSPVTKSFNRGEC
notes: also called anti-BCMA/anti-CD3 T cell bispecific antibody 83A10-TCBcv
- EC50 [1]: 17.4 nM and 2.51 µg/mL
- EC50 [2]: > 300 nM and ~27200 µg/mL
- EC50 of redirected T-cell killing of L363 cells (LDH release), Donor 1 [3]: 0.0168 nM
- EC50 of redirected T-cell killing of L363 cells (LDH release), Donor 2 [3]: 0.0478 nM
- EC50 of redirected T-cell killing of L363 cells (LDH release), Donor 3 [3]: 0.0284 nM
- EC50 of redirected T-cell killing of L363 cells (LDH release), Donor 4 [3]: 0.0126 nM
- EC50 of redirected T-cell killing of L363 cells (LDH release), Donor 5 [3]: 0.039 nM
- Annexin-V positive JJN-3 cells (%) at 0.1 pM TCB, Experiment 2 [4]: 13.1%
- Annexin-V positive JJN-3 cells (%) at 1 pM TCB, Experiment 1 [4]: 11.4%
- Annexin-V positive JJN-3 cells (%) at 1 pM TCB, Experiment 2 [4]: 14.3%
- Annexin-V positive JJN-3 cells (%) at 10 pM TCB, Experiment 1 [4]: 11.1%
- Annexin-V positive JJN-3 cells (%) at 10 pM TCB, Experiment 2 [4]: 15.9%
- Annexin-V positive JJN-3 cells (%) at 100 pM TCB, Experiment 1 [4]: 9.12%
- Annexin-V positive JJN-3 cells (%) at 100 pM TCB, Experiment 2 [4]: 16.5%
- Annexin-V positive JJN-3 cells (%) at 1000 pM TCB, Experiment 1 [4]: 10.2%
- Annexin-V positive JJN-3 cells (%) at 1000 pM TCB, Experiment 2 [4]: 17.5%
- Annexin-V positive JJN-3 cells (%) at 10000 pM TCB, Experiment 1 [4]: 16.8%
- Annexin-V positive JJN-3 cells (%) at 10000 pM TCB, Experiment 2 [4]: 22.9%
- EC50 of redirected T-cell killing of H929 cells (LDH release), Donor 1 [5]: 0.0039 nM
- EC50 of redirected T-cell killing of H929 cells (LDH release), Donor 3 [5]: 0.0085 nM
- EC50 of redirected T-cell killing of H929 cells (LDH release), Donor 4 [5]: 0.005 nM
- EC50 of redirected T-cell killing of H929 cells (LDH release), Donor 5 [5]: 0.0043 nM
- EC50 of redirected T-cell killing of H929 cells (LDH release), Donor 6 [5]: 0.0015 nM
- EC50 [6]: 12 nM and 1.73 µg/mL
- Lysis of JJN-3 cells (%) at 0.1 pM TCB, Experiment 2 [7]: 22.3%
- Lysis of JJN-3 cells (%) at 1 pM TCB, Experiment 1 [7]: 24.4%
- Lysis of JJN-3 cells (%) at 1 pM TCB, Experiment 2 [7]: -1.88%
- Lysis of JJN-3 cells (%) at 10 pM TCB, Experiment 1 [7]: 41.9%
- Lysis of JJN-3 cells (%) at 10 pM TCB, Experiment 2 [7]: 39.6%
- Lysis of JJN-3 cells (%) at 100 pM TCB, Experiment 1 [7]: 18.4%
- Lysis of JJN-3 cells (%) at 100 pM TCB, Experiment 2 [7]: 20.1%
- Lysis of JJN-3 cells (%) at 1000 pM TCB, Experiment 1 [7]: 26.7%
- Lysis of JJN-3 cells (%) at 1000 pM TCB, Experiment 2 [7]: 25.3%
- Lysis of JJN-3 cells (%) at 10000 pM TCB, Experiment 1 [7]: 70.3%
- Lysis of JJN-3 cells (%) at 10000 pM TCB, Experiment 2 [7]: 51.2%
- EC50 of redirected T-cell killing of RPMI-8226 cells (LDH release), Donor 2 [8]: 0.621 nM
- EC50 of redirected T-cell killing of RPMI-8226 cells (LDH release), Donor 3 [8]: 0.229 nM
- EC50 of redirected T-cell killing of RPMI-8226 cells (LDH release), Donor 4 [8]: 0.035 nM
- EC50 of redirected T-cell killing of RPMI-8226 cells (LDH release), Donor 5 [8]: 0.0649 nM
- EC50 of Granzyme B secretion, PBMC plus RPMI-8226 cells (CBA) [9]: 0.34 nM
- EC50 of IL-10 secretion, PBMC plus RPMI-8226 cells (CBA) [9]: 0.3 nM
- EC50 of TNF-α secretion, PBMC plus RPMI-8226 cells (CBA) [9]: 0.52 nM

B2: 42-TCBcv (bispecific antibody, human IgG1, kappa, L234A L235A)
heavy 1: not shown
heavy 2: EVQLLESGGGLVQPGGSLRLSCAASGFTFSDNAMGWVRQAPGKGLEWVSAISGPGSSTYYADSVKGRFTISRDNSKNTLYLQMNSLRAEDTAVYYCAKVLGWFDYWGQGTLVTVSSASTKGPSVFPLAPSSKSTSGGTAALGCLVEDYFPEPVTVSWNSGALTSGVHTFPAVLQSSGLYSLSSVVTVPSSSLGTQTYICNVNHKPSNTKVDEKVEPKSCDKTHTCPPCPAPEAAGGPSVFLFPPKPKDTLMISRTPEVTCVVVDVSHEDPEVKFNWYVDGVEVHNAKTKPREEQYNSTYRVVSVLTVLHQDWLNGKEYKCKVSNKALGAPIEKTISKAKGQPREPQVCTLPPSRDELTKNQVSLSCAVKGFYPSDIAVEWESNGQPENNYKTTPPVLDSDGSFFLVSKLTVDKSRWQQGNVFSCSVMHEALHNHYTQKSLSLSPGK
light 1: EIVLTQSPGTLSLSPGERATLSCRASQSVSDEYLSWYQQKPGQAPRLLIHSASTRATGIPDRFSGSGSGTDFTLAISRLEPEDFAVYYCQQYGYPPDFTFGQGTKVEIKRTVAAPSVFIFPPSDRKLKSGTASVVCLLNNFYPREAKVQWKVDNALQSGNSQESVTEQDSKDSTYSLSSTLTLSKADYEKHKVYACEVTHQGLSSPVTKSFNRGEC
light 2: EVQLLESGGGLVQPGGSLRLSCAASGFTFSTYAMNWVRQAPGKGLEWVSRIRSKYNNYATYYADSVKGRFTISRDDSKNTLYLQMNSLRAEDTAVYYCVRHGNFGNSYVSWFAYWGQGTLVTVSSASVAAPSVFIFPPSDEQLKSGTASVVCLLNNFYPREAKVQWKVDNALQSGNSQESVTEQDSKDSTYSLSSTLTLSKADYEKHKVYACEVTHQGLSSPVTKSFNRGEC
notes: also called 42-TCVcv; anti-BCMA/anti-CD3 T cell bispecific antibody of Mab42
- EC50 [1]: 3.8 nM and 0.553 µg/mL
- EC50 of redirected T-cell killing of L363 cells (LDH release), Donor 1 [3]: 0.0155 nM
- EC50 of redirected T-cell killing of L363 cells (LDH release), Donor 2 [3]: 0.0167 nM
- EC50 of redirected T-cell killing of L363 cells (LDH release), Donor 3 [3]: 0.0052 nM
- EC50 of redirected T-cell killing of L363 cells (LDH release), Donor 4 [3]: 0.0022 nM
- EC50 of redirected T-cell killing of L363 cells (LDH release), Donor 5 [3]: 0.0106 nM
- Annexin-V positive JJN-3 cells (%) at 0.1 pM TCB, Experiment 2 [4]: 12.8%
- Annexin-V positive JJN-3 cells (%) at 1 pM TCB, Experiment 1 [4]: 11.9%
- Annexin-V positive JJN-3 cells (%) at 1 pM TCB, Experiment 2 [4]: 13.5%
- Annexin-V positive JJN-3 cells (%) at 10 pM TCB, Experiment 1 [4]: 12.3%
- Annexin-V positive JJN-3 cells (%) at 10 pM TCB, Experiment 2 [4]: 13.6%
- Annexin-V positive JJN-3 cells (%) at 100 pM TCB, Experiment 1 [4]: 8.62%
- Annexin-V positive JJN-3 cells (%) at 100 pM TCB, Experiment 2 [4]: 14.4%
- Annexin-V positive JJN-3 cells (%) at 1000 pM TCB, Experiment 1 [4]: 16.8%
- Annexin-V positive JJN-3 cells (%) at 1000 pM TCB, Experiment 2 [4]: 21.7%
- Annexin-V positive JJN-3 cells (%) at 10000 pM TCB, Experiment 1 [4]: 24.8%
- Annexin-V positive JJN-3 cells (%) at 10000 pM TCB, Experiment 2 [4]: 26.9%
- EC50 of redirected T-cell killing of H929 cells (LDH release), Donor 1 [5]: 0.0097 nM
- EC50 of redirected T-cell killing of H929 cells (LDH release), Donor 3 [5]: 0.0117 nM
- EC50 of redirected T-cell killing of H929 cells (LDH release), Donor 4 [5]: 0.0072 nM
- EC50 of redirected T-cell killing of H929 cells (LDH release), Donor 5 [5]: 0.0068 nM
- EC50 [6]: 13.6 nM and 1.96 µg/mL
- Lysis of JJN-3 cells (%) at 0.1 pM TCB, Experiment 2 [7]: 17.6%
- Lysis of JJN-3 cells (%) at 1 pM TCB, Experiment 1 [7]: 40.3%
- Lysis of JJN-3 cells (%) at 1 pM TCB, Experiment 2 [7]: 34.9%
- Lysis of JJN-3 cells (%) at 10 pM TCB, Experiment 1 [7]: 39%
- Lysis of JJN-3 cells (%) at 10 pM TCB, Experiment 2 [7]: 39.4%
- Lysis of JJN-3 cells (%) at 100 pM TCB, Experiment 1 [7]: 41.9%
- Lysis of JJN-3 cells (%) at 100 pM TCB, Experiment 2 [7]: 55.3%
- Lysis of JJN-3 cells (%) at 1000 pM TCB, Experiment 1 [7]: 84%
- Lysis of JJN-3 cells (%) at 1000 pM TCB, Experiment 2 [7]: 81.1%
- Lysis of JJN-3 cells (%) at 10000 pM TCB, Experiment 1 [7]: 92.9%
- Lysis of JJN-3 cells (%) at 10000 pM TCB, Experiment 2 [7]: 90.4%
- EC50 of redirected T-cell killing of RPMI-8226 cells (LDH release), Donor 2 [8]: 0.383 nM
- EC50 of redirected T-cell killing of RPMI-8226 cells (LDH release), Donor 3 [8]: 0.0187 nM
- EC50 of redirected T-cell killing of RPMI-8226 cells (LDH release), Donor 4 [8]: 0.0035 nM
- EC50 of redirected T-cell killing of RPMI-8226 cells (LDH release), Donor 5 [8]: 0.0015 nM
- EC50 [10]: 13.2 nM and 1.91 µg/mL
